Target: SAVSBPM18-L-ABD(KC) fusion (not stated | Lumbricus terrestris)
Assay: affinity chromatography; 1-ml columns with about 1 mg of SAVSBPM18-L-ABD(KC) on Sepharose 6B-CL or 1,025 μg of SAVSBPM18 on Affi-Gel 15; 1 mg of biotinylated BSA loaded, above the binding capacity; elution with 10 mM biotin; fractions on SDS-PAGE

chemically biotinylated bovine serum albumin (BSA) (from UniProt P02769 25-607) (natural protein)
amount bound per ml of matrix at saturation (μg per ml of matrix): 730

Reference: paper PMC5318860
